In patent publication US20250179187A1 (REJUVERON SENESCENCE THERAPEUTICS, published 2025):
Substitutions are numbered along the chain they refer to. Like-named read-outs stand apart in the source and are kept apart here.

Columns and labels:
[1] = molecular target: T1, human PD-L2 on CHO-K1 cells over-expressing hPDL2-GFP (human, UniProt Q9BQ51 20-273); assay: flow cytometry on CHO-K1 cells expressing hPD-L2, median fluorescence
T1 construct: whole, on cells; also called cellular hPD-L2; cellular PDL2; not shown: GFP of the hPDL2-GFP construct
T1 sequence (looked up): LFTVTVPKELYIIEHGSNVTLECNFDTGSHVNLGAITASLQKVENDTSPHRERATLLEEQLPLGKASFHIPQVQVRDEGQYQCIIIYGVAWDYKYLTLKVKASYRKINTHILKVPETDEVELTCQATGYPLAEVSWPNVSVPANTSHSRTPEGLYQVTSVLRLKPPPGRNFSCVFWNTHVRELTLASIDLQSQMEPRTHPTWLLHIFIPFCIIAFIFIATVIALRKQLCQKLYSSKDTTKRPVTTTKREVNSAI
Description: (§1) CHO-K1 cells over-expressing either hPDL2-GFP or mPD-L2 GFP were detached, washed in phosphate buffered saline (PBS) and adjusted to a cell concentration of around 1 million cells in cytometry buffer (CB, PBS containing 1% […]). Around 80,000 cells were then distributed into a round-bottom 96 well plate and the plate was centrifuged for 3 minutes at 400 g at 4° C. and supernatant discarded. Appropriate antibody concentrations in 50 microliter volumes were added to the wells and incubated for 30 minutes at 6-8° C. The plate was washed 3 times with PBS and relevant secondary antibodies (either AlexaFluor 647 Goat anti-Mouse IgG (H+L) (Invitrogen A21235/lot 1915807) or AlexaFluor 647 Goat anti-Rat IgG (H+L) (Invitrogen A21247/lot 1921562) were added for 30 minutes at 4° C. Cells were again washed with PBS two times, resuspended in CB and analyzed in either the Sony ID7000 Spectral Cell analyzer (Sony) or the GALLIOS Flow Cytometer (Beckman-Coulter) was used. EC₅₀ was calculated using the Sigmoidal 4PL equation of the GraphPad Prism-9 software.

[2] = molecular target: T2, recombinant mouse PD-L2 (Sino Biological, cat 50804-M08H-B) (mouse, UniProt Q9WUL5 20-219); assay: ELISA on recombinant mPD-L2 according to the legend; the y axis on the sheet reads 'Mean fluorescent unit'
T2 construct: Bought protein; also called recombinant mPD-L2; recombinant mPDL2
T2 sequence (looked up): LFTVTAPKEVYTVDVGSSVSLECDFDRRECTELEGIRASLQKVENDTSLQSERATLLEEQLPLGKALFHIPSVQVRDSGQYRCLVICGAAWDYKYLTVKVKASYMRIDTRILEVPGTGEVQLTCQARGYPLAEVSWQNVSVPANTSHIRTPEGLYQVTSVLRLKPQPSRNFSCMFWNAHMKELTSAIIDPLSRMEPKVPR

[3] = molecular target: T3, human PD-L2 on CHO-K1 cells of the Promega PD-1/PD-L2 blockade bioassay (human, UniProt Q9BQ51 20-273); assay: cell-based or functional assay
T3 sequence (looked up): T1 sequence (looked up)

[4] = molecular target: T1, human PD-L2 on CHO-K1 cells …; assay: binding to cellular PDL2 (FIG. 1A by the text; flow cytometry on CHO-K1 cells expressing hPD-L2)
Description: as §1

[5] = molecular target: T1, human PD-L2 on CHO-K1 cells …; assay: flow cytometry blocking assay: antibody titrated against recombinant hPD-1 (constant 15 micrograms/mL) binding to CHO-K1 cells expressing hPD-L2; signal falls with the antibody; column head on the sheet is EC50
Description: CHO-K1 cells over-expressing either hPDL2-GFP were detached, washed in phosphate buffered saline (PBS) and adjusted to a cell concentration of around 1 million cells in CB. Around 80,000 cells were then distributed into a round-bottom 96 well plate and the plate was centrifuged for 3 minutes at 400 g at 4° C. and supernatant discarded. A constant concentration of ligand recombinant hPD-1 ligand (Sino Biological 10377-H08H/lot LC13JA2207) of 15 micrograms/mL was incubated with respective concentration of antibody, added to the cells and incubated for 30 min at 6-8° C. Cells were washed 3 times in PBS and then incubated with a rabbit polyclonal anti-His (Abcam Ab1187/lot GR3369369-1) in CB and subsequently washed three times in PBS. Cells were then incubated with a labeled anti-rabbit secondary (AlexaFluor 647 Goat anti-Rabbit IgG (H+L) (Invitrogen A21244/lot 1910774) for 15 minutes at 4° C., washed two times in PBS, resuspended in CB and analyzed in the Sony ID7000 Spectral Cell analyzer (Sony).

[6] = molecular target: T3, human PD-L2 on CHO-K1 cells of the …; assay: cell-based or functional assay; remark: listed apart in the source
[7] = molecular target: T4, mouse PD-L2 on CHO-K1 cells over-expressing mPD-L2 GFP (mouse, UniProt Q9WUL5 20-247); assay: flow cytometry on CHO-K1 cells overexpressing mPD-L2, mean fluorescence
T4 construct: whole, on cells; also called cellular mPD-L2; not shown: GFP of the mPD-L2 GFP construct
T4 sequence (looked up): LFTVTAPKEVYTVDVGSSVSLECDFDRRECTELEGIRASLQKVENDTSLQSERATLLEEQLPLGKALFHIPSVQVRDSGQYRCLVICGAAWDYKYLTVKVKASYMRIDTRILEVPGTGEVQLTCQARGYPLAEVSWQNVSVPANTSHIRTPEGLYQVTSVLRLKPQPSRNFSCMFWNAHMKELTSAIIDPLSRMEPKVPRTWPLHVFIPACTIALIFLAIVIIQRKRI
Description: as §1

[8] = molecular target: T5, recombinant human PD-L2 (human PD-L2 antigen) (human, UniProt Q9BQ51 20-219, limits assumed); assay: SPR (Biacore 8K), single cycle kinetics, antibody in culture supernatant, human PD-L2 antigen
T5 construct: The Biacore analyte and the ELISA antigen are only called human PD-L2 antigen / recombinant hPD-L2; Whole entry named; also called hPD-L2; recombinant hPD-L2
T5 sequence (looked up): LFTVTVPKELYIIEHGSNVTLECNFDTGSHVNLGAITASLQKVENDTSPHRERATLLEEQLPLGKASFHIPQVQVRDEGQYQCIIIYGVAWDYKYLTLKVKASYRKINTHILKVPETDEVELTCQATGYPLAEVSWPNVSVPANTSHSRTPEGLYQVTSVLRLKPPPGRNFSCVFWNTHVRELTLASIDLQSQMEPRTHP
Source text: Table 2: Single cycle kinetic parameters of chimeric (VH0/VK0) and humanized variants (tested as cell culture supernatants) binding to human PD-L2 antigen as determined using the Biacore 8K. As used herein, the term “KD” is intended to refer to the dissociation equilibrium constant of a particular antibody-antigen interaction, ka is the binding rate constant and kd is the dissociation rate constant. The binding affinity of antibodies of the disclosed invention may be measured or determined by standard antibody-antigen assays. The relative KD was calculated by dividing the KD of the humanized variant by that of the VH0/VK0 assayed in the same experiment.

B1: VH0/VK0-mIgG1 (parental murine monoclonal antibody VHP/VKP on mIgG1 backbone) (antibody, V domains shown)
VH: QVQLQQSGAELVRPGTSVKVSCKASGYAFSNYFIEWVKQRPGQGLEWIGLNIPGSGGSNYAEKFKGKATLTADKSSSTAYMQLSSLTSEDSAVYFCARRRLPPDWYFDVWGTGTTVTVSS
VL: DVVMTQTPLSLPVSLGDQASISCRSSQSLVHSDGNTYLHWYLQKPGQSPKLLIYKVSNRFSGVPDRFSGSGSGTDFTLKISRVEAEDLGVYFCSQSTHVPWTFGGGTKLEIK
notes: Murine IgG1 backbone; also called parental mouse antibody
EC50 [1]: 538 pM
EC50 (read off the curve) [2]: ~500 pM
EC50 (PD-1/PD-L2 blockade reporter assay, luminescence) [3]: 1110 pM
EC50 [4]: 219 pM
EC50 [5]: 600 pM

B2: VH8/VK2 (antibody, V domains shown)
VH: QVQLVQSGAEVKKPGSSVKVSCKASGYAFSNYFIEWVKQPPGKGLEWIGLNIPGSGGSNYAEKFKGRATITADKSTSTAYMELSSLRSEDTAVYYCARRRLPPDWYFDVWGQGTTVTVSS
VL: B1 VL with T7S, S14T, D17Q, Q18P, L42Q, S48P, L88V, F92Y, L109V
notes: hIgG1 backbone, CHO expressed
EC50 (PD-1/PD-L2 blockade reporter assay, luminescence) [6]: 1290 pM
EC50 [7]: 230 pM
Kd [8]: 52.8 pM
Relative KD (KD of variant / KD of VH0/VK0) [8]: 1.47
koff [8]: 0.000121 s⁻¹
